Reference: patent US20260265789A1, “METHOD FOR IMPROVING 2, 4 DIHYDROXYBUTYRIC ACID PRODUCTION AND YIELD” (ADISSEO FRANCE S.A.S, priority 2023, published 2026)

Key:
[1] = tested on: rhmA; experiment: Transcriptomic analysis during DHB fermentation: aldolase gene expression; type: cell-based, Escherichia coli; details: in presence of significant amount of DHB
[2] = tested on: garL; experiment: as above; type: cell-based, Escherichia coli; details: in presence of significant amount of DHB
[3] = tested on: yagE; experiment: as above; type: cell-based, Escherichia coli; details: in presence of significant amount of DHB
[4] = tested on: YjhH; experiment: as above; type: cell-based, Escherichia coli; details: in presence of significant amount of DHB
[5] = tested on: yfaU; experiment: as above; type: cell-based, Escherichia coli; details: in presence of significant amount of DHB
[6] = biological target: T1, Escherichia coli pyruvate aldolase Eda (E.C. 4.1.2.14) (Escherichia coli, UniProt P0A955); experiment: Kinetic characterization of pyruvate aldolase on OHB (coupled LdhA/NADH assay, 340 nm); type: biochemical; details: Tris-HCl 50 mM pH 7.5, 5 mM MgCl2, 37° C., 0 to 13 mM OHB
T1 construct: coupled LdhA/NADH assay
T1 sequence (P0A955 1-213): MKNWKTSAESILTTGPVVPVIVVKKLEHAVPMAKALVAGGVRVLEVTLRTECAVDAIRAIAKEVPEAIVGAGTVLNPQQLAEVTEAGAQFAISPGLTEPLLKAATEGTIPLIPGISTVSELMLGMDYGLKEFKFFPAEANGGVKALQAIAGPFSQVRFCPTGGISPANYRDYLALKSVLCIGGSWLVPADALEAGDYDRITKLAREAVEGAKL

[7] = variant obtained by in vivo evolution (Bouzon et al., 2017); cited from earlier work
[8] = In vivo capacity to degrade OHB by deletion of genes encoding pyruvate aldolase; type: cell-based, Escherichia coli; details: E. coli, gene deletion strains incubated with DHB
Source text: We measured production of formate in strains that were deleted for one of these aldolase encoding gene.

[9] = substrate: O=C(O)C(=O)CCO; experiment: purified protein, by the assay type; type: biochemical, Escherichia coli; details: Tris-HCl 50 mM pH 7.5, 5 mM MgCl2, 37° C., 0 to 13 mM OHB

Question: Which “Maximal Expression” value [1] does the source give for `O=C(O)C(O)CCO` (racemic) [DHB, 2,4-dihydroxybutyric acid] here?
Answer: 1.14

Question: And the “Minimal Expression” value [1]?
Answer: 0.98

Question: And the “Maximal Expression” value [2]?
Answer: 1.32

Question: And the “Minimal Expression” value [2]?
Answer: 1.06

Question: And the “Maximal Expression” value [3]?
Answer: 13.33

Question: And the “Minimal Expression” value [3]?
Answer: 1.82

Question: What about the “Maximal Expression” value [4] of the same molecule?
Answer: 3.33

Question: And the “Minimal Expression” value [4]?
Answer: 1.25

Question: And the “Maximal Expression” value [5]?
Answer: 1.09

Question: And the “Minimal Expression” value [5]?
Answer: 0.9

Question: For `O=C(O)C(=O)CCO` [OHB, 2-oxo-4-hydroxybutyrate], which Km [6] is on record?
Answer: > 20000 µM

B1: AlaC^A142PY275D: variant of alanine-α-ketoglutarate transaminase from E coli Ec-AlaC, obtained by in vivo evolution (Bouzon et al., 2017) (protein, UniProt P77434 1-412, looked up, variant A142P Y275D)
Glutamate-pyruvate …: MADTRPERRFTRIDRLPPYVFNITAELKMAARRRGEDIIDFSMGNPDGATPPHIVEKLCTVAQRPDTHGYSTSRGIPRLRRAISRWYQDRYDVEIDPESEAIVTIGSKEGLAHLMLATLDHGDTVLVPNPSYPIHIYGAVIPGAQVRSVPLVEGVDFFNELERAIRESYPKPKMMILGFPSNPTAQCVELEFFEKVVALAKRYDVLVVHDLAYADIVYDGWKAPSIMQVPGARDVAVEFFTLSKSYNMAGWRIGFMVGNKTLVSALARIKSYHDDGTFTPLQVAAIAALEGDQQCVRDIAEQYKRRRDVLVKGLHEAGWMVEMPKASMYVWAKIPEPYAAMGSLEFAKKLLNEAKVCVSPGIGFGDYGDTHVRFALIENRDRIRQAIRGIKAMFRADGLLPASSKHIHENAE
Question: For B1, which “higher catalytic activity on homoserine” value [7] is on record?
Answer: 100 fold

B2: YjhH: E. coli pyruvate aldolase, E.C. 4.1.2.28, natural substrate 2-keto-3-deoxy-D-arabinonate; His-tagged recombinant protein (protein, UniProt P39359 1-301, looked up)
Probable …: MKKFSGIIPPVSSTFHRDGTLDKKAMREVADFLINKGVDGLFYLGTGGEFSQMNTAQRMALAEEAVTIVDGRVPVLIGVGSPSTDEAVKLAQHAQAYGADGIVAINPYYWKVAPRNLDDYYQQIARSVTLPVILYNFPDLTGQDLTPETVTRLALQNENIVGIKDTIDSVGHLRTMINTVKSVRPSFSVFCGYDDHLLNTMLLGGDGAITASANFAPELSVGIYRAWREGDLATAATLNKKLLQLPAIYALETPFVSLIKYSMQCVGLPVETYCLPPILEASEEAKDKVHVLLTAQGILPV
modifications: His tag
notes: E. coli pyruvate aldolase, E.C; 4.1.2.28, natural substrate 2-keto-3-deoxy-D-arabinonate; His-tagged recombinant protein
Question: For B2, which “function on OHB in vivo” value [8] is on record?
Answer: most efficient to degrade OHB in vivo

B3: Escherichia coli pyruvate aldolase YagE (E.C. 4.1.2.28) (Escherichia coli K-12) (protein)
chain: MPQSALFTGIIPPVSTIFTADGQLDKPGTAALIDDLIKAGVDGLFFLGSGGEFSQLGAEERKAIARFAIDHVDRRVPVLIGTGGTNARETIELSQHAQQAGADGIVVINPYYWKVSEANLIRYFEQVADSVTLPVMLYNFPALTGQDLTPALVKTLADSRSNIIGIKDTIDSVAHLRSMIHTVKGAHPHFTVLCGYDDHLFNTLLLGGDGAISASGNFAPQVSVNLLKAWRDGDVAKAAGYHQTLLQIPQMYQLDTPFVNVIKEAIVLCGRPVSTHVLPPASPLDEPRKAQLKTLLQQLKLC
notes: coupled LdhA/NADH assay
Question: What does the source list for B3?
Answer: Km ([9]; other: YagE): 350 µM; Vmax ([9]; other: YagE): 0.63 µmol/min/mg; kcat ([9]; other: YagE): 0.04 s⁻¹; kcat/Km ([9]; other: YagE): 115 M⁻¹ s⁻¹

B4: YagE: E. coli pyruvate aldolase, E.C. 4.1.2.28, natural substrate 2-keto-3-deoxy-D-arabinonate; His-tagged recombinant protein (protein, UniProt P75682 1-302, looked up)
Putative …: B3 chain
modifications: His tag
notes: as for B2
Question: Which “function on OHB in vivo” value [8] does the source give for B4 here?
Answer: most efficient to degrade OHB in vivo

B5: GarL: E. coli pyruvate aldolase, E.C. 4.1.2.20, natural substrate 5-dehydro-4-deoxy-D-glucarate (protein, UniProt P23522 1-256, looked up)
5-keto-4-deoxy-D-glucarate …: MNNDVFPNKFKAALAAKQVQIGCWSALSNPISTEVLGLAGFDWLVLDGEHAPNDISTFIPQLMALKGSASAPVVRVPTNEPVIIKRLLDIGFYNFLIPFVETKEEAELAVASTRYPPEGIRGVSVSHRANMFGTVADYFAQSNKNITILVQIESQQGVDNVDAIAATEGVDGIFVGPSDLAAALGHLGNASHPDVQKAIQHIFNRASAHGKPSGILAPVEADARRYLEWGATFVAVGSDLGVFRSATQKLADTFKK
Question: With B5 as the molecule, how does the “function on OHB in vivo” value [8] read?
Answer: do not have any function on OHB in vivo

B6: YfaU: E. coli pyruvate aldolase, E.C. 4.1.2.53, natural substrate 2-keto-3-deoxy-L-rhamnonate (protein, UniProt P76469 1-267, looked up)
2-keto-3-deoxy-L-rhamnonate …: MNALLSNPFKERLRKGEVQIGLWLSSTTAYMAEIAATSGYDWLLIDGEHAPNTIQDLYHQLQAVAPYASQPVIRPVEGSKPLIKQVLDIGAQTLLIPMVDTAEQARQVVSATRYPPYGERGVGASVARAARWGRIENYMAQVNDSLCLLVQVESKTALDNLDEILDVEGIDGVFIGPADLSASLGYPDNAGHPEVQRIIETSIRRIRAAGKAAGFLAVAPDMAQQCLAWGANFVAVGVDTMLYSDALDQRLAMFKSGKNGPRIKGSY
Question: With B6 as the molecule, how does the “function on OHB in vivo” value [8] read?
Answer: do not have any function on OHB in vivo

B7: Escherichia coli pyruvate aldolase DgoA (E.C. 4.1.2.21) (Escherichia coli K-12) (protein)
chain: MQWQTKLPLIAILRGITPDEALAHVGAVIDAGFDAVEIPLNSPQWEQSIPAIVDAYGDKALIGAGTVLKPEQVDALARMGCQLIVTPNIHSEVIRRAVGYGMTVCPGCATATEAFTALEAGAQALKIFPSSAFGPQYIKALKAVLPSDIAVFAVGGVTPENLAQWIDAGCAGAGLGSDLYRAGQSVERTAQQAAAFVKAYREAVQ
notes: coupled LdhA/NADH assay
Question: Which Km ([9]; other: DgoA) does the source give for B7 here?
Answer: 2800 µM

Question: What about the Vmax ([9]; other: DgoA) of the same molecule?
Answer: 0.04 µmol/min/mg

Question: What about the kcat ([9]; other: DgoA) of the same molecule?
Answer: 0.012 s⁻¹

Question: What about the kcat/Km ([9]; other: DgoA) of the same molecule?
Answer: 4.7 M⁻¹ s⁻¹
